Experiment [1] deals with T1, Hall (A1) toxin (UniProt P0DPI0 2-1296).
In experiment [2] the target is T2, Honey (A2) toxin (UniProt Q45894 2-1296).
Experiment [3] addresses T1, Hall (A1) toxin. This is another data set of the same source.
The target in experiment [4] is T2, Honey (A2) toxin. This is another data set of the same source.

What is called Kd is a measure of binding affinity in units of concentration. The low end stands for a tighter complex, the high end for a looser complex.

T2 sequence (Q45894 2-1296): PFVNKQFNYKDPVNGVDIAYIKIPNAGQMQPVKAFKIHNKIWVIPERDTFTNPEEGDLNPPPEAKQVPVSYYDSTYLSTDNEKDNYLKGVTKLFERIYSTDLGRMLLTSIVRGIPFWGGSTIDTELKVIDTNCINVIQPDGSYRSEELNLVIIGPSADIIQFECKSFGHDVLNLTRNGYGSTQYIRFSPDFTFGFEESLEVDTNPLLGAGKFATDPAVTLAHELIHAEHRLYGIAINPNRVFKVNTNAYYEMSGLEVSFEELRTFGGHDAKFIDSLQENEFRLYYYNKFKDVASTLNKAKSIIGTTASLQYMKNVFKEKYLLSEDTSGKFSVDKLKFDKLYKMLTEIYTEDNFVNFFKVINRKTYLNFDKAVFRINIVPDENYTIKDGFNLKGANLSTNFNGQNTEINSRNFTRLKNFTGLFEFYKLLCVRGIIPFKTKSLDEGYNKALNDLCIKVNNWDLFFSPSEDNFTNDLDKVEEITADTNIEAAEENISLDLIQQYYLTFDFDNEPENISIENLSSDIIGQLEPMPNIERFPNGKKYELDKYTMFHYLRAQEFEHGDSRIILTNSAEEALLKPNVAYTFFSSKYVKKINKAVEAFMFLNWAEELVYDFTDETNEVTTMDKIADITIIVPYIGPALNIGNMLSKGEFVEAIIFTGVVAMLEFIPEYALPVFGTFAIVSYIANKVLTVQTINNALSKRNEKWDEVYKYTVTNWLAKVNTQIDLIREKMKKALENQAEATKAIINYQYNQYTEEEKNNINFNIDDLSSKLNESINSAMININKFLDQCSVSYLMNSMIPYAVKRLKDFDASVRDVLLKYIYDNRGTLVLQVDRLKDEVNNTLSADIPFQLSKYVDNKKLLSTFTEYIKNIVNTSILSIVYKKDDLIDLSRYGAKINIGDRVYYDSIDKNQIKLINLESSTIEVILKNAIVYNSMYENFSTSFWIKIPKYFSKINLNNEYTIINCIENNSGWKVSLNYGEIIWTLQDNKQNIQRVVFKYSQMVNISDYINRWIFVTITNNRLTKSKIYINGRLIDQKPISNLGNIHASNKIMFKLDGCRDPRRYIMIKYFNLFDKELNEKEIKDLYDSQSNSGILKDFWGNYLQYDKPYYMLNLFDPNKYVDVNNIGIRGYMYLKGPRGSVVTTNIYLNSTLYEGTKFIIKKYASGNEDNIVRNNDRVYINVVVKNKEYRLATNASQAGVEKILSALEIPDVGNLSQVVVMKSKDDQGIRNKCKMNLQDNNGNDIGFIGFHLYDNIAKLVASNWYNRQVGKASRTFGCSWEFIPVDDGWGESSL

B1: 3D12 (wild type, as tested in Table 12) (antibody, V domains shown)
VH: QVQLVQSGGGVVHPGRSLKLSCAGSGFTFSDYDMHWVRQAPGKGLEWVAVMWFDGTEKYSAESVKGRFTISRDNSKNTLFLQMNSLRADDTAVYYCAREPDWLLWGDRGALDVWGQGTTVTVSS
VL: DIVMTQSPSTLSASVGDRVTITCRASQSISSWLAWYQQKPGKAPKLLMYEASSLESGVPSRFSGSGSGTEFTLTISSLQPDDFAAYYCQHYNTYPYTFGQGTKLEIKR
Consider B1, for which the Kd in experiment [1] stood at 0.94 nM; in experiment [2] it was 2.2 nM.

B2: 3D12.3-8 (antibody, V domains shown)
VH: QVQLVQSGGGVVHPGRSLKLSCAGSGFTFSDYDMHWVRQAPGKGLEWVAVIWFDGTEKYSAESVKGRFTISRDNSKNTLFLQMNSLRADDTAVYYCAREPDWLLWGDRGALDVWGQGTTVTVSS
VL: DIVMTQSPSTLSASVGDRVTITCRASQSISSWLAWYQQKPGKAPKLLMYGASSLGSGVPSRFSGSGSGTEFTLTISSLHPDDFAAYYCQHYNTYPYTFGQGTKLEIKR
On to B2, for which the “fold tighter binding than wild type 3D12” value in experiment [3] and in experiment [4] was more than 10 fold each time. Further, the values for the Kd in experiment [1] and in experiment [2] were 0.021 nM and 0.067 nM, respectively.

B3: 3D12.3-10 (antibody, V domains shown)
VH: QVQLVQSGGGVVHPGRSLKLSCAGSGFTFSDYDMHWVRQAPGKGFEWVAVMWFDGTEKYSAESVKGRFTISRDNSKNTLFLQMNSLRADDTAVYYCAREPDRLLWGDRGALDVWGQGTTVTVSS
VL: DIVMTQSPSTLSASVGDRVTITCRASQSISSWLAWYQQKPGKAPKLLMYEASSLGRGVPSRFSGSGSGTEFTLTISSLQPDDFAAYYCQHYSTYPYTFGQGTKLEIKR
Turning to B3, the “fold tighter binding than wild type 3D12” value in experiment [3] and in experiment [4] was more than 10 fold in each case. The Kd is 0.028 nM in experiment [1] and 0.081 nM in experiment [2].

B4: 3D12.3-1 (RAZ1) (antibody, V domains shown)
VH: QVQLVQSGGGVVHPGRSLKLSCAGSGFTFSDYDMHWVRQAPGKGLEWVAVMWFDGTEKYSAESVKGRFTISRDNSKNTLFLQMNSLRADDTAVYYCAREPDWLLWGDRGALDVWGQGTTVTVSS
VL: DIVMTQSPSTLSASVGDRVTITCWASQSISSRLAWYQQKPGKAPKLLMYEATSLGSGVPSRFSGSGSGTEFTLTISSLQPDDFAAYYCQHYDTYPYTFGQGTKLEIKR
In the case of B4, the “fold tighter binding than wild type 3D12” value in experiment [3] and in experiment [4] was more than 10 fold each time. Further, the Kd in experiment [1] is 0.017 nM; in experiment [2], 0.07 nM.

B5: AR2 (affinity improved HuC25) (antibody, V domains shown)
VH: QVQLQESGGGLVQPGGSLRLSCAASGFTFSDHYMYWVRQAPGKGLEWVATISDGGSYTYYPDSVKGRFTTSRDNSKNTLYLQMNSLRAEDTAIYYCSRYRYDDAMDYWGQGTLVTVSS
VL: EIVLTQSPATLSLSPGERATISCRASESVDSYGHSFMQWYQQKPGQAPRLLIYRASNLEPGIPARFSGSGSGTDFTLTISSLEPEDFAVYYCQQGNEVPFTFGQGTKVEIKR
Take B5: the affinity in experiment [1], expressed as Kd, was 0.047 nM.

B6: AR1 (affinity improved HuC25) (antibody, V domains shown)
VH: QVQLQESGGGLVQPGGSLRLSCAASGFTFSDYYMYWVRQAPGKGLEWVATISDGGSYTYYPDSVKGRFTISRDNSKNTLYLQMNSLRAEDTAIYYCSRYRYDDAMDYWGQGTLVTVSS
VL: EIVLTQSPATLSLSPGERATISCRASESVDSYGHSFMQWYQQKPGQAPRLLIYRASNLEPGIPARFSGSGSGTDFTLTISSLEPEDFAVYYCQQGNEVPFTFGQGTKVEIKR
Take B6: the Kd in experiment [1] came out at 0.2 nM; in experiment [2] it was 100 nM.

B7: Humanized C25 (HuC25) (antibody, V domains shown)
VH: QVQLQESGGGLVQPGGSLRLSCAASGFTFSDYYMYWVRQAPGKGLEWVATISDGGSYTYYPDSVKGRFTISRDNSKNTLYLQMNSLRAEDTAMYYCSRYRYDDAMDYWGQGTLVTVSS
VL: EIVLTQSPATLSLSPGERATISCRASESVDSYGHSFMQWYQQKPGQAPRLLIYRASNLEPGIPARFSGSGSGTDFTLTISSLEPEDFAVYYCQQSNEDPFTFGQGTKVEIKR
In the case of B7, the figures for the Kd in experiment [1] and in experiment [2] were 1.24 nM and 250 nM, respectively.

B8: WR1(T) (HuC25 derivative) (antibody, V domains shown)
VH: QVQLQESGGGLVQPGGSLRLSCAASGFTSSDHYMYWVRQAPGKGLEWVATISDGGSYTYYPDSVKGRFTTSRDNSKNTLYLQMNSLRAEDTAIYYCSRYRYDDAMDYWGQGTLVTVSS
VL: EIVLTQSPATLSLSPGERATISCRASESVDSYGHSFMQWYQQKPGQAPRLLIYRASNLEPGIPARFSGSGSGTDFTLTISSLEPEDFAVYYCQQGNEVPFTFGQGTKVEIKR
As to B8, the Kd was 0.31 nM in experiment [1] and 3.7 nM in experiment [2].

B9: WR1(V) (HuC25 derivative) (antibody, V domains shown)
VH: QVQLQESGGGLVQPGGSLRLSCAASGFTSSDHYMYWVRQAPGKGLEWVATISDGGSYTYYPDSVKGRFTVSRDNSKNTLYLQMNSLRAEDTAIYYCSRYRYDDAMDYWGQGTLVTVSS
VL: EIVLTQSPATLSLSPGERATISCRASESVDSYGHSFMQWYQQKPGQAPRLLIYRASNLEPGIPARFSGSGSGTDFTLTISSLEPEDFAVYYCQQGNEVPFTFGQGTKVEIKR
For B9, the Kd in experiment [1] worked out at 0.45 nM; in experiment [2], 9 nM.

These data come from US20090324606A1 (published 2009).
